# In the DeepSol protein solubility set:
# Experiment: soluble on expression in E. coli; label from the status in PepcDB or PDB records
row,Sequence,soluble on expression in E. coli
1,MSLNPKQVSQKLANKPKDRPIAFVSKPDSLTQCLTPVFTNSEGYVSVSDCEEAIDARYDVFSRIAWKLRDGWVCLSAENEKYNQGKRLILRPCVIDDKTQSFTIKDNMLYTPDLRFVVRIANGFLTLQKSQSKGAQSNLILHNMQEWLDTIATPAPLMQKGFIAWKFISPQGFDVYYLRNNESIKNDPQELYFNLENGIIAQYDSASAKMFCLTSKQNAKQDWNWASWEECLQQNLRENKAAPSKLNAQNWKLFMFADNDSAMLKDYLGNFLRVTKYGSNWGVPYTAKADYLAKDTNEGQTSYFQFRHDMQDWERFKNANLSDSLPTCPANGSYAKNLKASVKLPPSFVLTQEWKKRLWQIATTTDGVLERAGDCGVCLLHSYQMIAEMNEYTATPLESGGFFFDTAFGRNPFTSFRARYPMLAASLEQYRASNTPPGLSRSAVFAYAAQMYRAIALSLFPGHFWLSSEFATSDVTIRSALRDLFQQPAGTLWVVQMYYVARDGSFNGHGMPVLRTGDGIQFIPTNLTNMNYEGYERALSNSFAHNLREAYNVVTRNGTLNLYMLYSLRLREIYPNPINAFVSNNNCSGEGEDRRGTRNMPLSRFINQCASGRCVLQEGHHHHHH,not soluble
2,MSLNPNVQECSFEETIEAHLFANGYASLPASDYDAALALFPTSVLTFVRATQLKEWAKLEALHGANTEATVLKDLTHWLDTHGTLAVLRNGFKCYGRTLRVAYFKPAHGMNPELAAQYAANRVGVIRQLRYSQRNTNELDLVLSINGIPVFTAELKNPMTGQTVTNAIAQYQHDRDHREPLFEFKRRALVHFAVDTEQVFMTTRLAGSATHFLPFNKGLDGGAGNPPDPAGRAYRTAYLWEEVWQRDSLLDIFARFIHLQVEEKRTDDGRKIKKETMIFPRYHQLRAVRELEDAARTEGPGHNYLVEHSAGSGKSNTIGWLAHRLASLHNESDHKVFDSVIVITDRRVLDRQLQDTIYQFEHRQGVVQKIDEDSRQLAEALTNSVPIIISTLQKFPFVARQLARMAEERREGADGILPTRRCAVIIDEAHSSQSGETATDLKEVLGGHVLREEAARYAVDEGVDNLDELYRSMAKRGRQTNLSFFAFTATPKHKTLAVFGRDEAGKAGQPFHRYTMSQAIEEGFIMDVLKNYTTYATYYKLVKASEDDPNVERKQAAKALARFMRLHPYNIAQKTEVMVEHFNAVTRHKVGGKAKAMVVTGSRLEAVRYKLAFDAYIREKGYSWIKTLVAFSGEVVDDELPGKTWTEVGMNGGIKEGVLPEKFDSSEYQVLLVAEKYQTGYDQPLLHTMYVDKRLAGIQAVQTLSRLNRMHPLKEDTFVLDFVNDRQEIKEAFKQYHEGAEMGEEADPNQMYAIKAELDASGIYLLEEMQRFIGIYFKPKQRQSPADHQAMNEGHHHHHH,not soluble
3,MSLNQTILNRVKTRVMHQLVSSLIYENIVVYKASYQDGVGHFTIEGHDSEYRFTAEKTHSFDRIRITSPIERVVGDEADTTTDYTQLLREVVFTFPKNDEKLEQFIVELLQTELKDTQSMQYRESNPPATPETFNDYEFYAMEGHQYHPSYKSRLGFTLSDNLKFGPDFVPNVKLQWLAIDKDKVETTVSRNVVVNEMLRQQVGDKTYEHFVQQIEASGKHVNDVEMIPVHPWQFEHVIQVDLAEERLNGTVLWLGESDELYHPQQSIRTMSPIDTTKYYLKVPISITNTSTKRVLAPHTIENAAQITDWLKQIQQQDMYLKDELKTVFLGEVLGQSYLNTQLSPYKQTQVYGALGVIWRENIYHMLIDEEDAIPFNALYASDKDGVPFIENWIKQYGSEAWTKQFLAVAIRPMIHMLYYHGIAFESHAQNMMLIHENGWPTRIALKDFHDGVRFKREHLSEAASHLTLKPMPEAHKKVNSNSFIETDDERLVRDFLHDAFFFINIAEIILFIEKQYGIDEELQWQWVKGIIEAYQEAFPELNNYQHFDLFEPTIQVEKLTTRRLLSDSELRIHHVTNPLGVGGINDATTISETEGHHHHHH,soluble
4,MSLNRVSHPLTYENFKTSSAEQESKITKLLENLYKGGKRIVKLRNDPTGVTHAIRLDNDIFKLNVYIKNIDTSKSNLRYTEGYLQSLTNILTRAKEIAIQGASGTYESDDKKMISKEVNALLEDVVAIANAKGPDGYSIFSGTKIDSEAFKVTRENKISKTSKDGAGPQIIKVEYNGNQAEKKTEVYNDIHMSNNYPGNVIFFLQNQNIISSINTNGFAVKENTKIYIDNIEIGLTAGDTALDIVAKINESSAPVEASIDPVLNSLSIKTTTPHQIWITEEKESNVLQTLGILTKNNDTKLPPYNLSSSTEVRSRSIFDALIELRDTLYNNKEELVGSRSLAEIDESLKRLLISVADLGAKENRLDRSYERISKEAADMKEDMIQYTDEGHHHHHH,soluble
5,MSLNTVYHSYQSLPNEGWGKSDTLSFQCPVTDSIPGTLRLFAEVRNRSEYPYRNLYLFIHENLLDSTVWRTDTIAVNLADSTGRWTGNGWGSIYQTAVFVKSVRPLHPGNYTVKIVHGMQDEKLTGLNDVGIRIEKQGEGHHHHHH,soluble
6,MSLNWEHLLSLKRQGDTAKRLRIEQDDTRLGFEVDYDRIIFSAPFRSLQDKTQVIPLSKTDFVHTRLTHSLEVSVVGRSLGRMVGKKLLEKYPHLEQVYGYKFNDFGAIVAAAALAHDIGNPPFGHSGEKAIGEFFKNGYGKRYKDSLTAKEYQDLIKFEGNANGFKVLSQSKPGAQGGLRLSYATLGAFMKYPKESLPHKPSDHIADKKYGFFQSERALFEDVAQELGLLKRSTTDDVSWSRHPLAYLVEAADDICYTIIDFEDGINLGLIPEEYALEYMVKLVGQTIDRNKYNALQETSDRVSYLRALAIGTLINESVDTFMKYEEEILAGTFDQSLIDKSNYQAQITDIINLSIERIYNSREVIEKEIAGYEILSTLLEARCRALDNNDTHYNQLIQQLLAPNDHSEKSLYENLIQICAEVSTMTDGKALRNYKKIKGLDEGHHHHHH,soluble
7,MSLPHALIVEDDPNSLSGLSAILAADGFSVDTATTIAEARAALTRFIPDVVLVDLNLPDGSGLDLLQHLPAHPPGGALPVIVMTGNATVESAIEGLRHGIWDYLLKPVNIPRLRSLLARIPRPYELTEEVQTLRASLRQLGRFGSMLGRSGAIQHVYDTIEHIAPTEAAVLISGETGTGKQIAARTMHDMSRRRKGPFITFDCRSANSAGVQRSLDSLLFGHERGAFNGAEQREPGLFEQASGGTLFIEEIAELPRAQQEALLRALDSQTFMRVGGTNQVVTDFRLIASTRKAPRAAVADGSLHEDLALRLEAAAVTLPPLRERGEDPALIAQAVVDELNHEGLTRGSAESAKQVAPNFLRECLAYEWPGNVRELQDRVRRAYHASGDVLESLRADEAGSEGHHHHHH,soluble
8,MSLPILTIREVCNINHWGIGYYDVDDSGEIIVRPNPSQHNQTVSLQKLTEAVQQKHQARLPVLFCFPQILEHRLRDINRAFQTAREECGYKGGYCLVYPIKVNQHRRVIESLMSSGQPHGLEAGSKAELMAVLAHAGNRQTLIVCNGYKDREYIRFALMGEKLGHQVYLVIEKLSEIQMVLEEAEKLGIKPRLGVRARLASQGSGKWQSSGGEKSKFGLSASQVLQLVDILKQKNRLDCLQLLHFHLGSQLGNIRDVATGVHESARFYVELHKLGVNIRCFDVGGGLGVDYEGNRTQSDCSVNYSLNEYAATVVWGISQACLEHGLPHPTIITESGRGITAHHAVLVANVIGVERYKPRRLDAPSPEAPRVLHSMWETWTDISASREKRSLRSWIHEGQFDLADVHNQYNVGLLSLAQRAWAEQLYLNICHEVGELFNEKHRSHRTIIDELQERFADKLYVNFSLFQSLPDAWGIDQLFPVCPITGLNEPIARRAVLLDITCDSDGTIDHYIDGDGIAGTMPMPDYPEEEPPLLGFFMVGAYQEILGNMHNLFGDTATADVVVGEDGQFTVIDYDEGNTVADMLEYVYQDPKELMKRYREQIEHSDLPASQAMSFLKELEAGLNGYTYLEDEEGHHHHHH,soluble
9,MSLPIRVPDELPAVNFLREENVFVMTTSRASGQEIRPLKVLILNLMPKKIETENQFLRLLSNSPLQVDIQLLRIDSRESRNTPAEHLNNFYCNFEDIQEQNFDGLIVTGAPLGLVEFNDVAYWPQIKQVLEWSKDHVTSTLFVCWAVQAALNILYGIPKQTRTDKLSGVYEHHILHPHALLTRGFDDSFLAPHSRYADFPAALIRDYTDLEILAETEEGDAYLFASKDKRIAFVTGHPEYDAQTLAQEYFRDVEAGLDPEVPYNYFPHNDPQNKPRASWRSHGNLLFTNWLNYYVYQITPYDLRHMNPTLDEGHHHHHH,soluble
10,MSLPKITKIEVQKKNKERFNLFLDEQFEMGIDIDTLVKFNLKKGQQLEAADMAEIQKYDHYRIGLNKAIQYLSYKKRTEKEVIQYLQKEEISEQAISEVIEYCYREKLIDHQDYAESLKNTMIRTTDKGPKIYQQKLYQLGIEPNIIEIFTELYREQQELDDIIQIAEKISKTKKGPQNKVKEKVMQSLIQKGFEMETIHAVLNEMDFTQDEAVLDDLLQRDLEKIYNKNRKKYTQQKLISKTIEGLMRKGYKYDKIKAKLEESGIADGTEEIEEGHHHHHH,soluble
11,MSLPLSKTLVQKLQQAGMAIANNQPQIKFTPLSISDEKGKVALDLNIALVPNPKFDLMHSGLYKQFKDFSINFDVNKETAISLLSKFVPENQKQDLVYRMDELIAEGEANGIIVNTDKTVTLTLALENNDLKLNGKPIPEEQLKVVLFILVMGGFGREGHHHHHH,soluble
12,MSLPPILTSQIGPDSIELRLLVAADLEYFNGHFPEQAVLPGVTQLDWAVRLGCEHFGYSAAVANLEVLKFQQLILPGQEVTLVISHNATKEKLTFAYSDGDHRYASGRISFASKQDDGLEHHHHHH,not soluble
13,MSLPRFSNVSYEQYWALREQSDEWLEYIDGAVYMAPSPSIKHQLVSSNLHTELGLYFRGKPCNVFAAPTDIELASDKFPDRKVVIPDLSVICDSKGFTETKYVGVPTLIVEILSPSNQAHDLVTKFNLYMAYGVKEYWIVNPMKEAITVYTLNEEGLYEQADVKAGTGVVQSACFPRLEVALEDVFR,not soluble
14,MSLPRLGIILHGVTGRMGYNQHLVRSILAIRDRGGITLQSGERLEIDPIIVGRNRDKMEQLAKRHDIARWSTDLDAALADPNDQIFFDAGTTLMRAELIGRALDAGKHVYCEKPISDDLRTAVKLARKARASGLKHGVVQDKLFLPGLRKLALLRDSGFFGKILSVRGEFGYWVFEGDWGVPAQRPSWNYRKKDGGGIILDMLCHWRYVLDNLFGEVKAVSCLGATHIPSRIDEQGRAYDCDTDDAAYATFELEGGIVAHINSSWAVRVRRDDLVTFQVDGTHGSAVAGLTKCWTQHRVNTPKPVWNPDQPQTIDFYRTWDEVPDTQAFDNGFKAQWEMFLRHVAEDGPWPHGLEAGAKGVQLAELGLKSWAERRWLDVPELEGHHHHHH,not soluble
15,MSLPRRPTSSAREGDGGKRSGHTFAAVEAIGRALPDVEVTTAWGQPALKVHGKMFVCVASHKSAEPNSLVVMMAFADRDALVEDDPATYYLRKHYLNHPCVLVRLTRIRLDALRDLVVGAHRLVNVQMRSKSDIGSQGTSRPLRDRREGHHHHHH,soluble
16,MSLPSERELGKELEVSRLTVRKAIQELEQKGILYKIQGKGTFVNDRKKAGEHGNKIGVISHLYKGVFMEILEGIEEGLESESYEYLLRNSQNDYKKEENIIQAMKEEGVSGFIISPVEDQKDSNVIFNLKAEGYPIVLIDRKLNYCETDCVLSDNIDGGFKATEYLIKLGHSRIAFLTYEFRKTSSVRDRIKGYRYALKLNQLELDERLLFSYNKDLSREEKNKILYNFIKENKPTAIIGVHNDVALDVVKMCRANNISIPEDISIICFDNTDIVRHLEVPLTTLVQDARKIGYDAAKLIVKKINSQEETGIMNQIYHPVKLIERNSCKSILQKNEGHHHHHH,soluble
